The nature of this data set: yeast display, Sf9 membrane polyspecificity reagent, FACS + sequencing; frameworks hold sequencing errors. In a few lines:
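Sorting gates, low and high (top ~1%), were placed on anti-HA fluorescence to track expression and on streptavidin fluorescence to track reagent binding. A clone's polyreactivity label is taken from the gate it came out of. The reagent was 10% biotinylated, detergent-solubilized Sf9 membrane, applied for 1 hour at 4 °C to galactose-induced yeast display cells.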
As for “QVQLVESGGGLVQAGGSLRLSCAASGRTFWKYVMGWYRQAPGKERELVAVISRPAGSTYYADSVKGRFTISRDNAKNSVYLQMNSLKPEDTAVYYCAKRPKNKPVLGDYDHWGQGTQVTVSS”, the “polyreactivity (PSR sort gate)” value was “low polyreactivity”.
For “QVQLVESGGGLVQAGGSLRLSCAASGRTFWRNAMGWYRQAPGKERELVAAINSGGRTYYADSVKGRFTISRDNAKNTVYLQMNSLKPEDTAVYYCAAVYSQSTKRYELYYWGQGTQVTVSS”, the “polyreactivity (PSR sort gate)” value was “high polyreactivity”.
“QVQLVESGGGLVQAGGSLRLSCAASGRTFWRYAMGWYRQAPGKERELVAAITSGGGSTYYADSVKGRFTISRDNAKNTVSLQMNSLKPEDTAVYYCNRAGRGRSFKGDYWGQGTQVTVSS”: the “polyreactivity (PSR sort gate)” value was “high polyreactivity”.
“QVQLVESGGGLVQAGGSLRLSCAASGRTFWRYAMGWYRQAPGKEREVVAAISRRGDSTYYADSVKGRFTISRDYAKNTVYLQMNSLKPEDTAVYYCNKGYAYSHDDPYWYSPRYDYWGQGTQVTVSS”: the “polyreactivity (PSR sort gate)” value was “low polyreactivity”.
Take “QVQLVESGGGLVQAGGSLRLSCAASGRTFWRYAMGWYRQAPWKERELVARISWRGGSTNYADSVKGRFTISRDNAKNTVYLQMNSLKPEDTAVYYFNAEVLNYLVFGYQLGYDYWGQGTQVTVSS”: the “polyreactivity (PSR sort gate)” value is listed as “low polyreactivity”.
Take “QVQLVESGGGLVQAGGSLRLSCAASGRTFWSNAMGWYRQAPGKERELVAAISTGAGSTYYADSVKGRFTISRDNAKNTVYLQMNSLKPEDTAVYYCAAVYNGALYTYYYWGQGTQVTVSS”: the “polyreactivity (PSR sort gate)” value is “high polyreactivity”.
On to “QVQLVESGGGLVQAGGSLRLSCAASGRTFWSNAMGWYRQAPGKERELVATISSGGGNTYYADSVKGRFTISRDNAKNTVYLQMNSLKPEDTAVYYCAATKYRWTYAASFGYWGQGTQVTVSS”, for which the “polyreactivity (PSR sort gate)” value was “high polyreactivity”.
For “QVQLVESGGGLVQAGGSLRLSCAASGRTFWTKAMGWYRQAPGKEREFVAAISWRGASTFYADSVKGRFTISRDNAKNTVYLQMNSLKPEDTAVYYCAAESYIGKYGSYDYWGQGTQVTVSS” the value was “low polyreactivity”.
In the case of “QVQLVESGGGLVQAGGSLRLSCAASGRTFWTNAMGWYRQAPGKEREFVAGISQSGGSTYYADSVKGRFTISRDNAKNTVYLQMNSLKPEDTAVYYCATVKAYRRNYYYWGQGTQVTVSS”, the “polyreactivity (PSR sort gate)” value is given as “high polyreactivity”.
As for “QVQLVESGGGLVQAGGSLRLSCAASGRTFWVNAMGWYRQAPGKERELVAGITFRGGSTYYADSVKGRFTISRDNAKNTVYLQMYSLKPEDTAVYYCAADVTFVYSGRRVHYFYWGQGTQVTVSS”, the “polyreactivity (PSR sort gate)” value is reported as “high polyreactivity”.
Take “QVQLVESGGGLVQAGGSLRLSCAASGRTFWVYAMGWYRQAPGKERELVAAIRRGGITNYADSVKGRFTISRDNAKNTVYLQMNSLKPEDTAVYSCATDNYGYLTRYYYWGQGTQVTVSS”: the “polyreactivity (PSR sort gate)” value is “low polyreactivity”.
In the case of “QVQLVESGGGLVQAGGSLRLSCAASGRTFWWYGMGWYRQAPGKDRELVAAITNGGSTNYADSVKGRFTISRDIAKNTVYLQMNSLKPEDTAVYYCAARTRSWYGGFYKYYYWGQGTQVTVSS”, the “polyreactivity (PSR sort gate)” value is “high polyreactivity”.
Consider “QVQLVESGGGLVQAGGSLRLSCAASGRTFWYNAMGWYRPAPGKERELVAAIRGSGGSTYYADSVKGRFTISRDNAKNTVYLQLNSLKPEDTAVYYCAARGFYRRTYQYENNYWGQGTQVTVSS”, for which the “polyreactivity (PSR sort gate)” value was “high polyreactivity”.
For the sequence “QVQLVESGGGLVQAGGSLRLSCAASGRTFWYNAMGWYSPAPGKERELLAVITKSGGSTYYADSVKGRFTISRDNAKNTVYLQMNSLKPEDTAVYYCAADTYVARSNYRYRGFDYWGQGTQVTVSS”, the “polyreactivity (PSR sort gate)” value is listed as “high polyreactivity”.
Take “QVQLVESGGGLVQAGGSLRLSCAASGRTFWYYAMGWYRQAPGHERELVAAITGRGGRTYYADSVTGRFTISRDNAKNTVYLQMNSLKPEDTAVYYCAARLPYLGGYDYWGQGTQVTVSS”: the “polyreactivity (PSR sort gate)” value was “high polyreactivity”.
In the case of “QVQLVESGGGLVQAGGSLRLSCAASGRTFWYYAMGWYRQAPGKERELVAYADSVKGRFTISRDKAKNTVYLQMNSLKPEDTAVYYCAVGPVVWFSSSLYYTEYYYWGQGTQVTVSS”, the “polyreactivity (PSR sort gate)” value is recorded as “low polyreactivity”.
For the sequence “QVQLVESGGGLVQAGGSLRLSCAASGRTFWYYDMGWYRQAPGKERELVATINNVGSTHYADSVKGRFTISRDNAKNNVYLQMNSLKPEDTSVYYCARASYGKMDYWGQGTQVTVSS”, the “polyreactivity (PSR sort gate)” value was “high polyreactivity”.
On to “QVQLVESGGGLVQAGGSLRLSCAASGRTFWYYTMGWYREAPGKERELVAAINWSGGSTYYADSVKGRFTISRDNAKNTVYLQMNSLKPEDTAVYYCAARRNGYFSAARDYGGQGTQVTVSS”, for which the “polyreactivity (PSR sort gate)” value is “high polyreactivity”.
As for “QVQLVESGGGLVQAGGSLRLSCAASGRTFYANAMGWYRQAPGKERELVAAISSRSGTTHYAHSVKGRFTISRDNAKNTVYLQMNSLKPEDTAVYYCAADSCDLYVWGYDHWGQGTQVTVSS”, the “polyreactivity (PSR sort gate)” value was “low polyreactivity”.
For “QVQLVESGGGLVQAGGSLRLSCAASGRTFYANAMGWYRQAPGKERELVASITTSGGTYYADSVKGRFTISRDNAKNTVYLQMNSLKPEDTAVYYCAADVYRSIGYDYWGQGTQVTVSS” the value was “low polyreactivity”; for “QVQLVESGGGLVQAGGSLRLSCAASGRTFYAYAMGWYRQAPGKERELVATISSSDASTYYADSVKGRFTISRDNAKNTVNLQMNSLKPEETAVYYCNADFVRPSWARGRNNGLYYWGQGTQVTVSS”, “low polyreactivity”.
Take “QVQLVESGGGLVQAGGSLRLSCAASGRTFYDNAMGWYRQAPGKERELVAAITKSGGRTYYADSVKGRFTISRDFAKNTVYLQMNSLKPEDTAVYYCAASWPNYLYEYWGQGTQVTVSS”: the “polyreactivity (PSR sort gate)” value was “high polyreactivity”.
On to “QVQLVESGGGLVQAGGSLRLSCAASGRTFYDNTMGWYRQAPGKERELVAAISRGGSTYADSVEGRFTISRDNAKNTVYLQMNSLKPEDTAVYYCNKRSITTEYGYWGQGTQVTVSS”, for which the “polyreactivity (PSR sort gate)” value is reported as “low polyreactivity”.
For the sequence “QVQLVESGGGLVQAGGSLRLSCAASGRTFYDNTMGWYRQAPGKERELVAAITRNGGSTYYADSVKGRFTISRDNAKNTVYLQMNTLKPEDTAVYYCNAELGILSGVAEGPTFREYDYWGQGTQVNVSS”, the “polyreactivity (PSR sort gate)” value is reported as “low polyreactivity”.
As for “QVQLVESGGGLVQAGGSLRLSCAASGRTFYDYAMGWYRQAPGKERELVASIRGSDGSTYYADSVKGRFTISRDNAKNTVYLQMNSLKPEDTEVYYCAARGFYGTNGRVYITSYYYWGQGTQVTVSS”, the “polyreactivity (PSR sort gate)” value is “high polyreactivity”.
For “QVQLVESGGGLVQAGGSLRLSCAASGRTFYDYTMGWYRQAPGKERELVAAISQRGGSTYYADSVKGRFTISRDNAKNTVYLQMNSLKPEDTAVYYCAARTSYSGNKYYYWGQGTQVTVSS” the value was “high polyreactivity”.
For the sequence “QVQLVESGGGLVQAGGSLRLSCAASGRTFYEYAMGWYRQAPGKERELVAAITIDGSTNYADSVKGRFTISRDNAKNTVYLQMNSLKPEDTAVYYCNARYLLYHGQHYRPYNYWGQGTQVTVSS”, the “polyreactivity (PSR sort gate)” value was “high polyreactivity”.
For the sequence “QVQLVESGGGLVQAGGSLRLSCAASGRTFYEYTMGWYRQAPGKERELVAAITWSVGSTYYADSVKGRFTISRDNAKNTVYLQMNSLKPEDTAVYYCAAYYYVWYYYWGQGTQVTVSS”, the “polyreactivity (PSR sort gate)” value is reported as “low polyreactivity”.
For “QVQLVESGGGLVQAGGSLRLSCAASGRTFYFNAMRWYRQAPGKERELVAGISGDGSTNYADSVKGRFTISRDNAKNTVYLQMNSLKPEDTAVYYCAARIRPGYRTWYYSWGQGTQVTVSS” the value was “low polyreactivity”; for “QVQLVESGGGLVQAGGSLRLSCAASGRTFYFNSMGWYRQAPGKERELVASISYGSNTNYADSVKGRFTISRDNAKNTVYLQMNSLKPEDTAVYYCAVRWVYRTYSWGARYGRYDYWGQGTQVTVSS”, “high polyreactivity”.

The values are drawn from the nanobody polyreactivity screen of Harvey et al. (2022).
